In US9347942B2, “Ultrasensitive cell based sensors and uses thereof” (CANVAX BIOTECH SL, priority 2010, dated 2016):

Assays:
Format in all cases: cell-based, Rat
[1] = system: anti-TNP IgE labelled RBL2H3-hGB cells; assay: IgE-allergen sensor, granzyme B release (Example 16); settings: substrate 1 uM
Source text: This example describes the use of the sensor for testing modulators of mast cells granule exocytosis widely used to find novel anti-allergic compounds as illustrated in FIG. 1. RBL2H3 were stably transfected with human granzyme B under the control of hCMV-MoLV5′LTR chimeric promoter as described in example 3. A mouse IgE monoclonal antibody against trinitrophenyl hapten was purified from IgELb4 hybridoma purchased from ATCC (TIB-141). TNP-N-hydroxysuccinimide esther was purchased from Biosearch Technologies Inc and conjugated to bovine serum albumin (BSA) using a standard protocol. Conjugation was determined at pH 7.0 by measuring TNP absorbance at 348 nm using 15400 units per mol per 10 mm light pass length as the extinction coefficient of TNP. Molar ratio of TNP to BSA in the TNP-BSA conjugate was calculated assuming the molecular weight of BSA is 60000. Sensor cells were cultivated as adherent cells for 48 hours in 6 well plates and then washed with HBSS and harvested by pippeting. 500.000 cells were labelled with anti-TNP IgE at 1 ug/ml_in HBSS for 60 minutes at 37 Celsius degrees, washed with 10 mL of HBSS, centrifuged and pellet was resuspended in 1 mL of HBSS. In a black wall 384 well plate 10 uL of serial dilutions of TNP-BSA in HBSS were added each containing the FRET-based granzyme B substrate FAM-[…]TAMRA (FAM-[…]-TAMRA) at 1 uM final concentration whose cleavage was detected by fluorescence using excitation at 485 nm and emission at 535 nm. Dilutions of TNP-BSA tested were: 1 ug/mL, 1 ng/mL, 1 pg/mL and 1 fg/mL. To each well 10 uL (5000 cells) of anti-TNP IgE labelled cells were added and plates were incubated at 37 Celsius degrees in a BMG-Labtech microplate fluorimeter. Microplate was read at 0, 15, 30, 45 and 60 minutes. The following controls were included: (1) wells with anti-TNP IgE labelled cells plus granzyme B substrate but without TNP-BSA; (2) wells with non-labelled cells plus granzyme B substrate and TNP-BSA at 1 ug/ml_; (3) wells with granzyme B substrate and TNP-BSA at 1 ug/ml_but no cells. Each well was included by triplicate.

[2] = system: RBL-2H3 cells; assay: Activity of granule stored protease reporters released by ionomycin, transient transfection (Example 4); settings: transiently transfected RBL-2H3, 650.000 cells, 10 uM ionomycin 1 hour, supernatant
Source text: Vectors were developed to express human granzyme A, M, H and K and human neutrophil elastase, human chymase, human cathepsin G and human proteinase 3 under the control of hCMV-MoMLV5′LTR chimeric promoter and RBL-2H3 cells were individually transfected by electroporation using a microporator (Gentelbio, South Korea) with the above plasmids and also with human granzyme B plasmid as control and with cytosolically truncated hNGFR receptor as a surface tag for determination of the percentage of transfection by flow cytometry with a anti-hNGFR monoclonal antibody conjugated to FITC (Miltenyi Biotec, Germany). After 48 hours cells were harvested by pipetting, washed with HBSS buffer and counted. 650.000 cells in 200 microliters of HBSS buffer were treated in suspension with 10 uM ionomycin for 1 hour and after centrifugation at 400 g for 5 minutes the supernatants were analysed for activity with specific fluorescent substrates. Controls of cells incubated with HBSS buffer only were included. Fluorescent substrates were specific tetrapeptides conjugated to 7-Amido-4-Methylcoumarin (AMC) and were custom synthesized by a custom peptide supplier. Specific substrates were: VANR-AMC for granzyme A; KVPL-AMC for granzyme M; PTSY-AMC for granzyme H; YRFK-AMC for granzyme K; PEEI-AMC for human neutrophil elastase; PTSY-AMC for human chymase; PTSY-AMC for human cathepsin G; VADC-AMC for human proteinase 3 and IEPD-AMC for human granzyme B. Released AMC was measured by excitation at 360 nm and emission at 460 nm in a BMG Labtech microplate fluorimeter in 96 well microplates using 125 microliters of supernatant and 125 microliters of specific substrate at 400 micromol per liter in HBSS buffer. Microplates were incubated at 37 Celsius degrees on the reader and were kinetically read at 0, 15, 30, 45 and 60 minutes. Percentage of transient electroporation measured using truncated hNGFR tag and anti-hNGFR-FITC antibody was about 60 percent.

[3] = system: RBL-2H3 cells; assay: Ionomycin-induced release of granule stored protease reporters from stable cell lines (Example 5); settings: stable RBL-2H3, 10 uM ionomycin 1 hour, supernatant equivalent to 100.000 cells, AMC substrate
Source text: As either tryptase-like enzymes, chymase-like enzymes, elastase-like enzymes or asp-ase like enzymes are useful for the methods of the present invention we selected human granzyme A (tryptase-like enzyme); human granzyme B (Asp-ase-like enzyme); human chymase (chymase-like enzyme) and human proteinase 3 (elastase-like enzyme) for further examples. Vectors were developed for stable expression of human granzyme A, human granzyme B, human chymase and human proteinase 3 under the control of hCMV-MoMLV5′LTR chimeric promoter. A hygromycin resistance cassette was included in the vector backbone for selection of stable populations of cells. The vector also included an IRES-NGFR cassette cloned downstream of granule stored protease reporter and thus, under the control of hCMV-MoMLV5′LTR promoter for flow cytometry and/or selection by MACS of stable cells expressing either human granzyme A or human granzyme B or human chymase or human proteinase 3. Each vector was individually electroporated using a microporator (Digital Bio Technology, South Korea) into RBL-2H3 and after 48 hours hygromycin at 1500 ug/mL was added to culture for selection. After selection for about 2 weeks cells were analysed by flow cytometry (Guava Technologies, USA) with an antibody against NGFR coupled to FITC. Positive population where magnetically separated by MACS using anti-NGFR-MACS sup.R (Miltenyi Biotec, Germany). Sorted populations were again analysed again by flow cytometry to check the sorting efficiency. Percentage of NGFR positive cells was always higher than 65 percent. Cells were seeded the night before experiment in 24 well microplates at 650.000 cells per well in 800 microliters of complete cell culture medium. Next day cells were washed with HBSS buffer and were treated with 10 uM ionomycin for 1 hour at 37 Celsius degrees in 200 uL of HBSS buffer and after centrifugation at 400 g for 5 minutes supernatants were analysed for activity with specific fluorescent substrates. Controls of cells incubated with HBSS buffer only were included. Fluorescent substrates were: VANR-AMC for granzyme A; PEEI-AMC for human neutrophil elastase; PTSY-AMC for human chymase; VADC-AMC for human proteinase 3 and IEPD-AMC for human granzyme B. Released AMC was measured by excitation at 360 nm and emission at 460 nm in a BMG Labtech microplate fluorimeter in 96 well microplates using 125 microliters of supernatant and 125 microliters of specific substrate at 400 micromol per liter in HBSS buffer. Microplates were incubated at 37 Celsius degrees on the reader and were kinetically read at 0, 15, 30, 45 and 60 minutes. Control wells with substrate only in HBSS buffer were included to subtract autofluorescence of substrates to both cells treated with ionomycin and to cells treated with HBSS buffer only. Autofluorescence of peptide substrates in HBSS buffer was about 3000 while fluorescence of cells treated with HBSS buffer only for 60 minutes at 37 Celsius degrees was about 5000, that is basal release in the absence of exocytosis modulator was about 2000. In contrast, fluorescence of ionomycin-induced release of human granzymes A and B was about 20.000 for a signal to background of 10 when using the supernatant equivalent to 100.000 cells; fluorescence of ionomycin-induced release of human chymase was about 30.000 for a signal to background of 15 when using the supernatant equivalent to 100.000 cells and fluorescence of ionomycin-induced release of human proteinase 3 was about 12.000 for a signal to background of 6 when using the supernatant equivalent to 100.000 cells. Thus, tryptase-like enzymes, chymase-like enzymes, elastase-like enzymes or asp-ase like enzymes can be stably expressed into granules of hemopoyetic cells with professional regulated exocytosis and such granule stored proteases are released by exocytosis modulators to produce sensors with good signal to background ratios using specific AMC-coupled peptide substrates. […]

| Molecule | Fluorescence after 30 minutes at 37° C. ([1]; TNP-BSA 1 pg/mL, 5000 cells with anti-TNP IgE) | Fluorescence after 30 minutes at 37° C. ([1]; TNP-BSA 1 ng/mL, 5000 cells with anti-TNP IgE) | Fluorescence after 30 minutes at 37° C. ([1]; TNP-BSA 1 ug/mL, 5000 cells with anti-TNP IgE) | Fluorescence after 30 minutes at 37° C. ([1]; TNP-BSA 1 ug/mL, 5000 cells without anti-TNP IgE (non-labelled)) | Fluorescence after 30 minutes at 37° C. ([1]; TNP-BSA 1 fg/mL, 5000 cells with anti-TNP IgE) | enzymatic activity of released reporter with specific AMC substrate [2] | fluorescence of ionomycin-induced release [3] | signal to background [3] |
| --- | --- | --- | --- | --- | --- | --- | --- | --- |
| TNP-BSA: trinitrophenyl hapten conjugated to bovine serum albumin, model allergen | 35884 | 34556 | 30942 | 2935 | 29826 |  |  |  |
| human chymase: Chymase-like serine protease (CMA1, NM_001836) used as granule stored reporter (protein, UniProt P23946 22-247, looked up) Chymase: IIGGTECKPHSRPYMAYLEIVTSNGPSKFCGGFLIRRNFVLTAAHCAGRSITVTLGAHNITEEEDTWQKLEVIKQFRHPKYNTSTLHHDIMLLKLKEKASLTLAVGTLPFPSQFNFVPPGRMCRVAGWGRTGVLKPGSDTLQEVKLRLMDPQACSHFRDFDHNLQLCVGNPRKTKSAFKGDSGGPLLCAGVAQGIVSYGRSDAKPPAVFTRISHYRPWINQILQAN |  |  |  |  |  | highest activity | about 30.000 | 15 |
| neutrophil elastase: Elastase-like serine protease (ELA2, NM_001972) used as granule stored reporter (protein, UniProt P08246 30-267, looked up) Neutrophil elastase: IVGGRRARPHAWPFMVSLQLRGGHFCGATLIAPNFVMSAAHCVANVNVRAVRVVLGAHNLSRREPTRQVFAVQRIFENGYDPVNLLNDIVILQLNGSATINANVQVAQLPAQGRRLGNGVQCLAMGWGLLGRNRGIASVLQELNVTVVTSLCRRSNVCTLVRGRQAGVCFGDSGSPLVCNGLIHGIASFVRGGCASGLYPDAFAPVAQFVNWIDSIIQRSEDNPCPHPRDPDPASRTH |  |  |  |  |  | equivalent activity that was higher than that of human granzyme M |  |  |
| human proteinase 3: Elastase-like serine protease (PRTN3, NM_002777) used as granule stored reporter (protein, UniProt P24158 28-248, looked up) Myeloblastin: IVGGHEAQPHSRPYMASLQMRGNPGSHFCGGTLIHPSFVLTAAHCLRDIPQRLVNVVLGAHNVRTQEPTQQHFSVAQVFLNNYDAENKLNDVLLIQLSSPANLSASVATVQLPQQDQPVPHGTQCLAMGWGRVGAHDPPAQVLQELNVTVVTFFCRPHNICTFVPRRKAGICFGDSGGPLICDGIIQGIDSFVIWGCATRLFPDFFTRVALYVDWIRSTLR |  |  |  |  |  | equivalent activity that was higher than that of human granzyme M | about 12.000 | 6 |
| human granzyme A: Tryptase-like serine protease (GZMA, NM_006144) used as granule stored reporter (protein, UniProt P12544 29-262, looked up) Granzyme A: IIGGNEVTPHSRPYMVLLSLDRKTICAGALIAKDWVLTAAHCNLNKRSQVILGAHSITREEPTKQIMLVKKEFPYPCYDPATREGDLKLLQLMEKAKINKYVTILHLPKKGDDVKPGTMCQVAGWGRTHNSASWSDTLREVNITIIDRKVCNDRNHYNFNPVIGMNMVCAGSLRGGRDSCNGDSGSPLLCEGVFRGVTSFGLENKCGDPRGPGVYILLSKKHLNWIIMTIKGAV |  |  |  |  |  | higher activity than granzyme K | about 20.000 | 10 |
